Measured values: patent publication US20220056142A1 (Sanofi, published 2022)
Positions count from the first letter of the chain named.

B1: KE58 (antibody, V domains shown)
VH: EVQLQQSGPDLVKPGASVKISCKASGYTVTDYYMNWVKQSHGKSLEWIGDINPNNGVTTYNQKFKDKATLTVDKSSSTAYMELRSLTSEDSAVYYCAREEDFDGFDYWGQGTTLTVSS
VL: DIVMTQSHKFMSTSVGDRVSITCKASQDVSTGVAWYQQKPGQSPQLLIYWASTRHTGVPDRFTGSGSGTDYILTIRSVQAEDLALYYCQQHYSTPLTFGAGTKLELK
notes: Mouse monoclonal antibody from a hybridoma; also called anti-FGFR3 antibody KE58
B2: KE35 (antibody, V domains shown)
VH: EVQLQQSGPELVKPGASVKMSCKASGYTFTDYNMHWVKQSHGKSLEWIGYINPNNGGTRYNQKFKGKATLTVNKSSSTAYMELRSLTSEDSAVYYCARERDYDGAMDYWGQGTSVTVSS
VL: DIQMTQSPSSLSASLGGKVTITCKASQDINKFIAWYQHKPGKGPRLLIHYTSTLQPGIPSRFSGSGSGRDYSFSISNLEPEDIATYYCLQYDNLLWTFGGGTKLEIK
notes: Mouse monoclonal antibody from a hybridoma; also called anti-FGFR3 antibody KE35
B3: KE42 (antibody, V domains shown)
VH: B2 VH with E46Q, R59N, K63N, G66D, S77T, A105S, Y108F
VL: B2 VL with Y87F
notes: Mouse monoclonal antibody from a hybridoma; also called anti-FGFR3 antibody KE42
B4: KE63 (antibody, V domains shown)
VH: QVQLQQSGAELVRPGASVTLSCKASGSTFSDFEIHWVKQTPVHGLEWIGGIDPETGGTAYNQKFKGKAILTADRSSSTAYMELRSLTSEDSAVYYCTRNYDGYSQTMDYWGQGTSVTVSS
VL: NIMMTQSPSSLAVSAGEKVTMSCKSSQSVLYSSNQKNYLAWYQQKPGQSPKLLIYWASTRESGVPDRFTGSGSGTDFTLTISSVQAEDLAVYYCHQYLSSYTFGGGTKLEMK
notes: Mouse monoclonal antibody from a hybridoma; also called anti-FGFR3 antibody KE63
B5: KC18 (antibody, V domains shown)
VH: B4 VH with S27D, S30T, G50D, K65R, K67R, I69M, N99T, S104P, Q105Y, T106A
VL: DIVMSQSPSSLAVSVGEKVTMSCKSSQSLLYSNNQKNYLAWYQQKPGQSPKLLIYWASTRESGVPDRFTGSGSGTDFTLTISSVKAEDLAVYYCQQYYSYRTFGGGTKLEIK
notes: Mouse monoclonal antibody from a hybridoma; also called anti-FGFR3 antibody KC18; KC18 mouse antibody
B6: KE94 (antibody, V domains shown)
VH: B4 VH with S30T, G50A, D73V, R74K, E82G, Q105R
VL: B4 VL with T78S, T80S, A86T, K108R
notes: Mouse monoclonal antibody from a hybridoma; also called anti-FGFR3 antibody KE94
B7: KC18_Hu28 (antibody, human IgG1, kappa, V domains shown)
VH: QVQLVQSGAEVVKPGASVKLSCKASGDTFTDFEIHWVKQAPGQGLEWIGDIDPETGGTAYNQKFQGRATLTADRSSSTAYMELSRLRSDDTAVYYCTRTYDGYPYAMDYWGQGTTVTVSS
VL: DIVMTQSPSSLAVSLGERVTMNCKSSQSLLYSNNQKNYLAWYQQKPGQSPKLLIYWASTRESGVPDRFSGSGSGTDFTLTISSVQAEDVAVYYCQQYYSYRTFGGGTKLEIKR
B8: KC18_Hu34 (antibody, human IgG1, kappa, V domains shown)
VH: B7 VH
VL: DIVMTQSPLSLAVTVGEKVSISCRSSQSLLYSNNQKNYLAWYQQKPGQSPKLLIYWGSTRESGVPDRFSGSGSGTDFTLTISRVEAEDVGVYYCQQYYSYRTFGGGTKLEIKR
B9: KC18_Hu16 (antibody, human IgG1, kappa, V domains shown)
VH: EVQLVQSGAEVKKPGATVKLSCKASGDTFTDFEIHWVQQAPGKGLEWIGDVDPETGGTAYAEKFQGRATLTADRSTDTAYMELSSLRSEDTAVYYCTRTYDGYPYAMDYWGQGTLVTVSS
VL: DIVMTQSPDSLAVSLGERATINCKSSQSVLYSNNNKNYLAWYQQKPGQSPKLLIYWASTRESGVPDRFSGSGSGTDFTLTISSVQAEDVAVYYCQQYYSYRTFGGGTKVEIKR
B10: KC18_Hu19 (antibody, human IgG1, kappa, V domains shown)
VH: B9 VH with E1Q, K12V, L20I, V51I, A61N, D77S, T97A, L115T
VL: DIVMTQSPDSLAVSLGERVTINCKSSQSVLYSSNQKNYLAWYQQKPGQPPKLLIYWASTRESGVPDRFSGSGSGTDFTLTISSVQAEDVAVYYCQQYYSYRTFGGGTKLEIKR
B11: KC18_Hu27 (antibody, human IgG1, kappa, V domains shown)
VH: B7 VH with S17T, Q43K, Q62E, S76T, R85S, D89E
VL: B7 VL
B12: KC18_Hu12 (antibody, human IgG1, kappa, V domains shown)
VH: B9 VH with M107F
VL: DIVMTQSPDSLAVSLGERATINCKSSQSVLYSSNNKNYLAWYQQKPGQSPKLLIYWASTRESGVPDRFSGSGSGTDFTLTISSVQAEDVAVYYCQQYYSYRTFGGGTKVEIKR
B13: KC18_Hu13 (antibody, human IgG1, kappa, V domains shown)
VH: B9 VH with E1Q, T17S, L20V, Q38R, K43Q, V51I, G57S, A59S, E62Q, D77S
VL: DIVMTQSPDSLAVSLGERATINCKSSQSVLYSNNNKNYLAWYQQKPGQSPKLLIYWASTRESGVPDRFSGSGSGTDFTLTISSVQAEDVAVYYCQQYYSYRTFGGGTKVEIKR
B14: KC18_Hu23 (antibody, human IgG1, kappa, V domains shown)
VH: B9 VH with E1Q, K12V, L20I, V51I, A61N, D77S, T97A, L115T
VL: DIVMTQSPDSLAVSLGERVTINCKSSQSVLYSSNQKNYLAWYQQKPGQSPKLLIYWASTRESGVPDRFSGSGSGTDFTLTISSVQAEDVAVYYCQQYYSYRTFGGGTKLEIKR
B15: KC18_Hu10 (antibody, human IgG1, kappa, V domains shown)
VH: B9 VH
VL: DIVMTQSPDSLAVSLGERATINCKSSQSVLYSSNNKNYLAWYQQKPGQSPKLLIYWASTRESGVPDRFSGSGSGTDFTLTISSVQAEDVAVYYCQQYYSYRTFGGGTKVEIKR
B16: KC18_Hu18 (antibody, human IgG1, kappa, V domains shown)
VH: B9 VH with M107F
VL: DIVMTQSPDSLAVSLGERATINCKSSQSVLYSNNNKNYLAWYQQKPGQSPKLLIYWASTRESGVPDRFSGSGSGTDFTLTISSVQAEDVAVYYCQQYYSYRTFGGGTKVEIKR
B17: KC18_Hu7 (antibody, human IgG1, kappa, V domains shown)
VH: B9 VH with E1Q, T17S, L20V, Q38R, K43Q, V51I, G57S, A59S, E62Q, D77S
VL: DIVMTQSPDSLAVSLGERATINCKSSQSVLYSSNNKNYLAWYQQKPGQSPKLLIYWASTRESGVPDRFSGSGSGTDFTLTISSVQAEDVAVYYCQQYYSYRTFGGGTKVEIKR
B18: KC18 (antibody, V domains shown)
VH: B4 VH with S27D, S30T, G50D, K65R, K67R, I69M, N99T, S104P, Q105Y, T106A
VL: B5 VL
notes: Mouse hybridoma antibody; also called parental KC18 antibody
B19: KE63 (antibody, V domains shown)
VH: B4 VH
VL: B4 VL
notes: Mouse hybridoma monoclonal antibody

The binders below were run against T1, N-terminal ECD protein of mouse FGFR3 with a terminal avidin tag (mouse, UniProt Q61851 21-369) (assay: SPR (Biacore), FGFR3 ECD immobilised on chip, antibody injected, 1:1 fit).
T1 construct: extracellular domain; not shown: terminal avidin tag
T1 sequence (looked up): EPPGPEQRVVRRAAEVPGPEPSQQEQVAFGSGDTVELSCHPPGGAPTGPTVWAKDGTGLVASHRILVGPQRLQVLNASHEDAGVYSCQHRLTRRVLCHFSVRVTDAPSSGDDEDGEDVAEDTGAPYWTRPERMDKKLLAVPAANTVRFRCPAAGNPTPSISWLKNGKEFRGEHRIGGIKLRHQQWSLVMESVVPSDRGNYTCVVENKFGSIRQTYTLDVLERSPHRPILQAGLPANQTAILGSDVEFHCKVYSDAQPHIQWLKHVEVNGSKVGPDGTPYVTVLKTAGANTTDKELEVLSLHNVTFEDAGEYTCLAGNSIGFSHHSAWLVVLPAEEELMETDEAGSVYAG
With B1 the Kd was 5.5 nM, the koff was 0.000918 s⁻¹ and the kon was 167000 M⁻¹ s⁻¹. For B2, the Kd was 1.89 nM, the koff was 0.00108 s⁻¹ and the kon was 571000 M⁻¹ s⁻¹. B3 showed a Kd of 0.81 nM, a koff of 0.0006 s⁻¹ and a kon of 739000 M⁻¹ s⁻¹. Work on B4 yielded a Kd of 6.7 nM, a koff of 0.00291 s⁻¹ and a kon of 436000 M⁻¹ s⁻¹. In the case of B5, the Kd is reported as 6.3 nM, the koff is reported as 0.0011 s⁻¹ and the kon is reported as 174000 M⁻¹ s⁻¹. B6 gave a Kd of 2.1 nM, a koff of 0.00148 s⁻¹ and a kon of 705000 M⁻¹ s⁻¹.

These binders were tested against T2, mouse FGFR3 (mouse, UniProt Q61851 21-369) (assay: affinity table; method not restated (Biacore SPR per Example 1)).
T2 construct: extracellular domain; also called mFGFR3
T2 sequence (looked up): T1 sequence (looked up)
B7 was tested, and the Kd was 5.41 nM. B8 showed a Kd of 8.14 nM. With B9 the Kd was 4.23 nM. For B10, the Kd was 3.78 nM. B11 showed a Kd of 4.6 nM. Binder B12 has a Kd of 1.73 nM. For B13, the Kd was 5.28 nM. Work on B14 yielded a Kd of 3.35 nM. B15 was tested, and the Kd was 5.15 nM. B16 was tested, and the Kd was 1.42 nM. In the case of B17, the Kd is reported as 6.36 nM. B18 was tested, and the Kd was 3.78 nM.

Each binder was assayed against T3, human FGFR3 (human, UniProt P22607 23-375) in the same assay as above.
T3 construct: also called hFGFR3
T3 sequence: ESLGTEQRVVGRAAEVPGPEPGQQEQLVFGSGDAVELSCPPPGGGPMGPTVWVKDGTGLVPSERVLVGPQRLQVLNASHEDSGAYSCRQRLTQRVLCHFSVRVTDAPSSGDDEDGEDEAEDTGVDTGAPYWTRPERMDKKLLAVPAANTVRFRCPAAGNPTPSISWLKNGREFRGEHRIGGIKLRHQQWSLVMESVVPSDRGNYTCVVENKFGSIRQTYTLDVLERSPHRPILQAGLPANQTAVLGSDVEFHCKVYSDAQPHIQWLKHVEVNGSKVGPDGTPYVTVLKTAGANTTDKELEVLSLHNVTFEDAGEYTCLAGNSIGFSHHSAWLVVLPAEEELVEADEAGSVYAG
Work on B7 yielded a Kd of 4.46 nM. B8 gave a Kd of 6.85 nM. B9 showed a Kd of 3.76 nM. Work on B10 yielded a Kd of 2.99 nM. For B11, the Kd was 3.9 nM. For B12, the Kd was 1.61 nM. In the case of B13, the Kd is reported as 4.52 nM. Work on B14 yielded a Kd of 2.68 nM. With B15 the Kd was 4.73 nM. In the case of B16, the Kd is reported as 1.25 nM. Work on B17 yielded a Kd of 5.41 nM. B18 showed a Kd of 2.73 nM.

Each binder was assayed against T4, human FGFR3 G380R isoform IIIc, full length, expressed on transfected cells (human, UniProt P22607 23-806) (assay: FACS, cells transfected with mutant FGFR3 (G380R)).
T4 construct: also called mutant FGFR3; FGFR3^G380R-300.19
Description: (§1) After three washes, the cells were incubated with a fluorescent-conjugated secondary antibody (Invitrogen).
B19: binds.

The binders below were run against T5, wild-type human FGFR3 isoform IIIc, full length, expressed on transfected cells (human, UniProt P22607 23-806) (assay: FACS, cells transfected with wild-type FGFR3).
T5 construct: also called wild-type FGFR3; FGFR3-300.19
Description: as §1
B19: binds.

Target: T6, cynomolgus FGFR3 (cynomolgus)
T6 construct: also called cynoFGFR3
T6 chain: T3 sequence with A13V, P17S, G22S, T57A, R94L, R171K
Assay: reactivity grade (Table 2); method not given
B1: binds. B2: binds. B3: binds. B4: binds. B5: binds. B6: binds.

Each binder was assayed against T7, human FGFR3 isoform IIIb (human, UniProt P22607-2 23-377) (assay: reactivity grade (Table 2); method not given).
T7 construct: Isoform IIIb differs from the canonical IIIc entry in the D3 domain; also called hFGFR3IIIb; FGFR3 IIIb
T7 sequence (looked up): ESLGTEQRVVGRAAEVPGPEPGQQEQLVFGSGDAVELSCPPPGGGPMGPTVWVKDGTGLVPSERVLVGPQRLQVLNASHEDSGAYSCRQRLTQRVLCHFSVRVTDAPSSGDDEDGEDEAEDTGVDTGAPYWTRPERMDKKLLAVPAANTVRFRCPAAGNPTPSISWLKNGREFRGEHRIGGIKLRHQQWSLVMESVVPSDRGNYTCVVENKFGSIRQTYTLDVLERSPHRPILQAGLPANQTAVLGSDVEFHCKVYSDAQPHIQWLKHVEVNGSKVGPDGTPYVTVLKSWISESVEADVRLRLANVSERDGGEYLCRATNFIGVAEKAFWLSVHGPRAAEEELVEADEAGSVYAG
B1: binds. B2: binds. B3: binds. B4: binds. B5: binds. B6: binds.

Each binder was assayed against T8, human FGFR3 isoform IIIc (human, UniProt P22607 23-375, limits assumed) (assay: reactivity grade (Table 2); method not given).
T8 construct: also called hFGFR3IIIc; FGFR3 IIIc
T8 sequence: T3 sequence
B1: binds. B2: binds. B3: binds. B4: binds. B5: binds. B6: binds.
